This experiment addresses T1, bovine serum albumin (bovine, UniProt P02769 25-607).
T1 construct: Control protein in the dot immunoblot; also called BSA
Description: dot immunoblot, BSA dotted as control. From the text: The fusion protein containing the full-length royalactin with a histidine tag (SEQ ID NO: 2), which was confirmed to have biological activity in Example 1, was produced in bacteria and purified. This protein was used to generate monoclonal antibodies by injection into mice with subsequent harvest of the spleen for generation of multiple hybridomas. Individual hybridomas were isolated and the antibody produced was screened using dot immunoblot assays. Various concentrations of royalactin were dotted onto the blot with bovine serum albumin (BSA) as a control.

T1 sequence (P02769 25-607 limits assumed): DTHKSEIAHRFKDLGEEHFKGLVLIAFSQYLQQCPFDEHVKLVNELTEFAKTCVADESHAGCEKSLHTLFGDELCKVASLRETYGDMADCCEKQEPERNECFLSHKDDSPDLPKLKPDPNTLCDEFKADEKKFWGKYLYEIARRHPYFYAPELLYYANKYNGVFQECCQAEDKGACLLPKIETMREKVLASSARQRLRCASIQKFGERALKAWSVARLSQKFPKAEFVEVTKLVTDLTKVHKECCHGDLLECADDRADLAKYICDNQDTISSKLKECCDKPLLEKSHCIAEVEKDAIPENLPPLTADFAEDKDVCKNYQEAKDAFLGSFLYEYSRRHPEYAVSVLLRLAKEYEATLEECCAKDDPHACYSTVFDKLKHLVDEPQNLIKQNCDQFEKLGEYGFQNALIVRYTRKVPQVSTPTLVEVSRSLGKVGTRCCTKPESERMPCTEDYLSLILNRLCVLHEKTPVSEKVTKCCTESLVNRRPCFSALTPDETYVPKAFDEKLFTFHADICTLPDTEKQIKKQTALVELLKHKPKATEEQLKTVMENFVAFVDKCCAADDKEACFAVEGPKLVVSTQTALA

B1: monoclonal antibody #19 (4G6C5) (antibody, V domains shown)
VH: VMLVESGGGLVKPGGSLKLSCAASGFTFSRYAMSWNRQTPEKRLEWVATISPGGGYIYYSDSVKGRFTISRDNARNTLYLQMSSLRSEDTAMYYCAGDYVDYWGQGTTLTVSS
VL: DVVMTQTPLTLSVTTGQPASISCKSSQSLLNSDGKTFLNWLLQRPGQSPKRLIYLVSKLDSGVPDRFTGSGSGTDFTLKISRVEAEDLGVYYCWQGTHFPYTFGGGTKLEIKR
notes: Mouse hybridoma monoclonal antibody; also called antibody 4G6C5; hybridoma #19
As for B1, the binding result is “no binding (tested: 2 ng)”.

Values taken from patent publication US20200377560A1 (WYL SCIENCES, published 2020).
